A value given as a limit tells only on which side of the number the result lay.

As a reminder, the Kd is a measure of binding affinity in units of concentration.

Holding throughout (assay): IEDB peptide-MHC binding, purified MHC/competitive/radioactivity; filed as Kd, often an IC50 or EC50 that approximates it; ≥ and ≤ were set here for values at or beyond the usual limits of such assays
The target in experiment [1] is HLA-A*03:01.
In experiment [2] the target is HLA-A*11:01.
The target in experiment [3] is HLA-A*31:01.
The target in experiment [4] is HLA-A*33:01.
Experiment [5] deals with HLA-A*68:01.
The mark [6] stands for this setting: source organism: Vaccinia virus WR.
[7] abbreviates: source organism: SARS coronavirus Tor2.
The mark [8] stands for this setting: source organism: Lassa virus Josiah.
The mark [9] stands for this setting: source organism: Lymphocytic choriomeningitis virus (strain Armstrong).
The mark [10] stands for this setting: source organism: Mammarenavirus juninense.
The mark [11] stands for this setting: source organism: Vaccinia virus Copenhagen.

For the sequence SIFPANINDK, the Kd was 1220 nM in experiment [1] (setting [6]); 7.48 nM in experiment [2] (setting [6]); at least 70000 nM in experiment [3] (setting [6]); at least 46000 nM in experiment [4] (setting [6]); 121 nM in experiment [5] (setting [6]).
On the same counts, the results for YANLDDVYSY are at least 25700 nM, 38.2 nM, at least 33300 nM, 15600 nM and 1650 nM.
On the same counts, the results for NSYISNIIY are 7480 nM, 2490 nM, at least 23700 nM, 11700 nM and 597 nM.
Taken in the same sequence, the figures for ILSYIYSEIK were 38.8 nM, 62.1 nM, at least 37000 nM, at least 70000 nM and 1240 nM.
For the sequence GFMRFFQLLR, the Kd in experiment [1] (setting [6]) was determined as 526 nM; in experiment [2] (setting [6]) it was 937 nM; in experiment [3] (setting [6]) it was 53.7 nM; in experiment [4] (setting [6]) it was 86.3 nM; in experiment [5] (setting [6]), 2410 nM.
On the same counts, the results for HSVFKGFSDK are 11.6 nM, 13.5 nM, 1420 nM, 14600 nM and 52 nM.
Taken in the same sequence, the figures for FSKSTSPTR were at least 42200 nM, 12300 nM, 20.6 nM, 387 nM and 9.78 nM.
On the same counts, the results for AVVADLSAR are 141 nM, 51.8 nM, 26.6 nM, 712 nM and 6.45 nM.
As to FLYLYALIY, the Kd in experiment [1] (setting [7]) was 6630 nM; in experiment [2] (setting [7]) it was 16300 nM; in experiment [3] (setting [7]), 16900 nM; in experiment [4] (setting [7]), 17900 nM; in experiment [5] (setting [7]), at least 44400 nM.
For LIKKSDAKR, the Kd in experiment [1] (setting [6]) was at least 78000 nM; in experiment [2] (setting [6]) it was 236 nM; in experiment [3] (setting [6]) it was 13.8 nM; in experiment [4] (setting [6]), 533 nM; in experiment [5] (setting [6]), 170 nM.
For SLRCGACIRR, the Kd was 265 nM in experiment [1] (setting [7]); 963 nM in experiment [2] (setting [7]); 16.3 nM in experiment [3] (setting [7]); 89.5 nM in experiment [4] (setting [7]); 915 nM in experiment [5] (setting [7]).
Take ICKMPLPTK: the Kd in experiment [1] (setting [8]) is 891 nM; in experiment [2] (setting [8]), 712 nM; in experiment [3] (setting [8]), 19800 nM; in experiment [4] (setting [8]), at least 47400 nM; in experiment [5] (setting [8]), 17200 nM.
Regarding SSRVDRYSKK, the Kd in experiment [1] (setting [6]) was 285 nM; in experiment [2] (setting [6]), 332 nM; in experiment [3] (setting [6]) it was 835 nM; in experiment [4] (setting [6]), at least 29600 nM; in experiment [5] (setting [6]) it was 3040 nM.
For VTMFEALPH, the Kd in experiment [1] (setting [9]) is 467 nM; in experiment [2] (setting [9]), 15.6 nM; in experiment [3] (setting [9]), at least 77900 nM; in experiment [4] (setting [9]), at least 77700 nM; in experiment [5] (setting [9]), 18700 nM.
Consider LSSKGLACYR, for which the Kd turned out to be 129 nM in experiment [1] (setting [6]); 43.8 nM in experiment [2] (setting [6]); 6.87 nM in experiment [3] (setting [6]); 47 nM in experiment [4] (setting [6]); 4.75 nM in experiment [5] (setting [6]).
With EILKINSVK, the Kd was found to be 713 nM in experiment [1] (setting [6]); 1540 nM in experiment [2] (setting [6]); 2080 nM in experiment [3] (setting [6]); 549 nM in experiment [4] (setting [6]); 2.64 nM in experiment [5] (setting [6]).
As to NYTKFWYVNH, the Kd was at least 70000 nM in experiment [1] (setting [10]); at least 56900 nM in experiment [2] (setting [10]); 1000 nM in experiment [3] (setting [10]); 54.5 nM in experiment [4] (setting [10]); 9630 nM in experiment [5] (setting [10]).
In the case of CAGVIEYAK, the Kd in experiment [1] (setting [6]) came to 988 nM; in experiment [2] (setting [6]), 192 nM; in experiment [3] (setting [6]), 2220 nM; in experiment [4] (setting [6]) it was 1190 nM; in experiment [5] (setting [6]) it was 51.1 nM.
Turning to ASGNLLLDK, the Kd in experiment [1] (setting [7]) was 694 nM; in experiment [2] (setting [7]), 29.8 nM; in experiment [3] (setting [7]) it was 13500 nM; in experiment [4] (setting [7]) it was at least 77700 nM; in experiment [5] (setting [7]), at least 38100 nM.
Turning to SASAFFGMSR, the Kd in experiment [1] (setting [7]) amounted to 966 nM; in experiment [2] (setting [7]), 11.9 nM; in experiment [3] (setting [7]), 9.48 nM; in experiment [4] (setting [7]), 121 nM; in experiment [5] (setting [7]), 10 nM.
As to NVISSKISY, the Kd in experiment [1] (setting [6]) was 651 nM; in experiment [2] (setting [6]), 482 nM; in experiment [3] (setting [6]), 4960 nM; in experiment [4] (setting [6]), 6450 nM; in experiment [5] (setting [6]), 439 nM.
With PLYIDISDVK, the Kd is 156 nM in experiment [1] (setting [6]); 9170 nM in experiment [2] (setting [6]); 9500 nM in experiment [3] (setting [6]); at least 56300 nM in experiment [4] (setting [6]); 1420 nM in experiment [5] (setting [6]).
Taken in the same sequence, the figures for KSDAKRNSK were 1150 nM, 887 nM, 1850 nM, at least 77700 nM and at least 77700 nM.
YLLVKWYKK: the Kd was 113 nM in experiment [1] (setting [11]); 189 nM in experiment [2] (setting [11]); 12 nM in experiment [3] (setting [11]); 30.5 nM in experiment [4] (setting [11]); at least 23400 nM in experiment [5] (setting [11]).
Regarding LLIWAYLSK, the Kd in experiment [1] (setting [6]) is 90.7 nM; in experiment [2] (setting [6]), 101 nM; in experiment [3] (setting [6]) it was 11200 nM; in experiment [4] (setting [6]), at least 37100 nM; in experiment [5] (setting [6]), 153 nM.
Regarding QMAPVSAMVR, the Kd is 527 nM in experiment [1] (setting [7]); 1080 nM in experiment [2] (setting [7]); 1020 nM in experiment [3] (setting [7]); 7320 nM in experiment [4] (setting [7]); 157 nM in experiment [5] (setting [7]).
In the case of NFPQHVITK, the Kd in experiment [1] (setting [6]) amounted to 4020 nM; in experiment [2] (setting [6]), 2050 nM; in experiment [3] (setting [6]), 11600 nM; in experiment [4] (setting [6]), 8920 nM; in experiment [5] (setting [6]), 1250 nM.
For MQTMLFTMLR, the Kd in experiment [1] (setting [7]) was 72.4 nM; in experiment [2] (setting [7]), 11.2 nM; in experiment [3] (setting [7]) it was 9.75 nM; in experiment [4] (setting [7]) it was 13.3 nM; in experiment [5] (setting [7]) it was 1.1 nM.
On the same counts, the results for RLISMMGFK are 3.18 nM, 22.2 nM, 104 nM, at least 77700 nM and 716 nM.
For GLSETGFMR, the Kd in experiment [1] (setting [6]) stood at 16300 nM; in experiment [2] (setting [6]), 2710 nM; in experiment [3] (setting [6]), 85.5 nM; in experiment [4] (setting [6]), 155 nM; in experiment [5] (setting [6]), 2130 nM.
Taken in the same sequence, the figures for SAKQLRTRIR were at least 70100 nM, at least 45500 nM, 1100 nM, 17300 nM and at least 28800 nM.
Taken in the same sequence, the figures for VSIILANER were at least 78000 nM, 47.2 nM, 130 nM, 7690 nM and 8.48 nM.
Consider LLFQLCTFTK, for which the Kd in experiment [1] (setting [7]) is 15.2 nM; in experiment [2] (setting [7]), 16.3 nM; in experiment [3] (setting [7]) it was 197 nM; in experiment [4] (setting [7]), 6910 nM; in experiment [5] (setting [7]) it was 66.3 nM.
Turning to FSNTILLSDK, the Kd in experiment [1] (setting [6]) is 25.5 nM; in experiment [2] (setting [6]) it was 1.96 nM; in experiment [3] (setting [6]), 1260 nM; in experiment [4] (setting [6]), at least 62600 nM; in experiment [5] (setting [6]) it was 100 nM.
In the case of NAFNCTFEY, the Kd in experiment [1] (setting [7]) is 3970 nM; in experiment [2] (setting [7]) it was 19.9 nM; in experiment [3] (setting [7]), 11500 nM; in experiment [4] (setting [7]) it was 1870 nM; in experiment [5] (setting [7]) it was 9.72 nM.
DLVKSYSLIR: the Kd in experiment [1] (setting [6]) is at least 10000 nM; in experiment [2] (setting [6]), 6720 nM; in experiment [3] (setting [6]) it was 173 nM; in experiment [4] (setting [6]) it was 579 nM; in experiment [5] (setting [6]) it was 1630 nM.
On the same counts, the results for YSHLLPTQR are 4030 nM, 1170 nM, 23 nM, 892 nM and 25.5 nM.
As for TAVCMKCFK, the Kd worked out at 211 nM in experiment [1] (setting [6]); 10.2 nM in experiment [2] (setting [6]); 448 nM in experiment [3] (setting [6]); 4460 nM in experiment [4] (setting [6]); 11.3 nM in experiment [5] (setting [6]).
Taken in the same sequence, the figures for SMNVAVIDK were at least 67700 nM, 0.278 nM, 612 nM, 7080 nM and 4880 nM.
In the case of LFKRERDAIK, the Kd in experiment [1] (setting [6]) was at least 30000 nM; in experiment [2] (setting [6]), at least 69800 nM; in experiment [3] (setting [6]) it was 1430 nM; in experiment [4] (setting [6]), 8280 nM; in experiment [5] (setting [6]), at least 35500 nM.
Taken in the same sequence, the figures for FSKNILKYY were at least 21200 nM, at least 28900 nM, 16300 nM, at least 77700 nM and 5490 nM.
In the case of TAFQHQNSKK, the Kd is 332 nM in experiment [1] (setting [7]); 139 nM in experiment [2] (setting [7]); at least 54300 nM in experiment [3] (setting [7]); at least 70000 nM in experiment [4] (setting [7]); 16.1 nM in experiment [5] (setting [7]).
For the sequence QTCAGVIEY, the Kd in experiment [1] (setting [6]) is 3200 nM; in experiment [2] (setting [6]) it was 134 nM; in experiment [3] (setting [6]), 18900 nM; in experiment [4] (setting [6]), at least 77700 nM; in experiment [5] (setting [6]), 1760 nM.
Taken in the same sequence, the figures for FVKKFGLCNY were at least 22800 nM, 15100 nM, 12200 nM, at least 45100 nM and at least 37100 nM.
In the case of VVSTGYHFR, the equilibrium dissociation constant (Kd) in experiment [1] (setting [7]) came to 31.5 nM; in experiment [2] (setting [7]), 8.55 nM; in experiment [3] (setting [7]), 1.69 nM; in experiment [4] (setting [7]), 41.2 nM; in experiment [5] (setting [7]) it was 7.34 nM.
For RQTVSRFKK, the Kd was determined as 39.7 nM in experiment [1] (setting [6]); 40.7 nM in experiment [2] (setting [6]); 13.1 nM in experiment [3] (setting [6]); 6560 nM in experiment [4] (setting [6]); 4630 nM in experiment [5] (setting [6]).
On the same counts, the results for DFRNRYEDY are 2770 nM, 7930 nM, at least 77900 nM, 96.4 nM and 3700 nM.

For the origin of these results see the Immune Epitope Database (IEDB).
